The Human Domainome abundance scans (Beltran et al. 2025)
± gives the uncertainty stated by the source.

B1: Zinc finger homeobox protein 4, residues 2086 to 2141; numbered along this chain, Q86UP3 (parent)
chain: RPRTRITDDQLKILRAYFDINNSPSEEQIQEMAEKSGLSQKVIKHWFRNTLFKERQ

Variants of: B1
Experiment: abundance fitness (aPCA) (normalised: wild type 0, dead -1); higher = more abundant; growth selection in yeast, the domain comes from the species named
Conditions: Homo sapiens

| Variant | abundance fitness |
| --- | --- |
| R1D | 0.188 ± 0.24 |
| T7Q | -0.42 ± 0.17 |
| I13G | -0.347 ± 0.076 |
| D9M | -0.084 ± 0.091 |
| L51V | 0.04 ± 0.09 |
| T4E | -0.096 ± 0.11 |
| R1L | -0.101 ± 0.2 |
| N22R | 0.071 ± 0.2 |
| A16T | -0.124 ± 0.083 |
| T7F | -0.352 ± 0.1 |
| D8L | -0.127 ± 0.079 |
| F52C | 0.13 ± 0.16 |
| F47K | -0.558 ± 0.12 |
| I20M | -0.007 ± 0.13 |
| I6R | -0.596 ± 0.077 |
| L38I | -0.217 ± 0.14 |
| R55E | -0.059 ± 0.099 |
| D8P | 0.034 ± 0.11 |
| K41N | -0.393 ± 0.25 |
| F18C | -0.179 ± 0.091 |
| T7S | -0.125 ± 0.083 |
| N49W | -0.12 ± 0.1 |
| T7R | -0.054 ± 0.12 |
| D9E | -0.003 ± 0.11 |

| Variant | abundance fitness |
| --- | --- |
| N21A | -0.031 ± 0.12 |
| F18S | -0.142 ± 0.078 |
| E54I | -0.403 ± 0.2 |
| Q28A | -0.092 ± 0.076 |
| A16S | 0.129 ± 0.068 |
| N49Y | -0.169 ± 0.13 |
| M32W | -0.511 ± 0.083 |
| E27Q | 0.142 ± 0.18 |
| F18A | -0.026 ± 0.073 |
| T7V | -0.217 ± 0.1 |
| Y17R | -0.114 ± 0.078 |
| I13R | -0.223 ± 0.074 |
| D9T | 0.165 ± 0.07 |
| R48E | -0.153 ± 0.13 |
| T50K | -0.016 ± 0.099 |
| K41L | -0.174 ± 0.074 |
| R1F | -0.327 ± 0.27 |
| A16D | -0.029 ± 0.11 |
| S23Q | -0.011 ± 0.18 |
| R15Y | -0.2 ± 0.11 |
| R48H | 0.049 ± 0.11 |
| K44W | -0.312 ± 0.23 |
| I6P | -0.103 ± 0.076 |
| D19I | -0.061 ± 0.16 |

| Variant | abundance fitness |
| --- | --- |
| D19Q | 0.029 ± 0.11 |
| R15F | -0.245 ± 0.16 |
| G37S | -0.15 ± 0.081 |
| R3F | -0.15 ± 0.095 |
| L38T | -0.279 ± 0.12 |
| Q56V | -0.568 ± 0.38 |
| V42N | -0.212 ± 0.14 |
| E54K | -0.169 ± 0.13 |
| K53N | -0.023 ± 0.15 |
| N49A | -0.023 ± 0.075 |
| F47G | -0.753 ± 0.084 |
| D8K | 0.012 ± 0.098 |
| H45V | -0.059 ± 0.073 |
| G37M | -0.06 ± 0.11 |
| Q30A | -0.019 ± 0.1 |
| I6C | -0.318 ± 0.084 |
| S23H | 0.187 ± 0.15 |
| T7L | -0.271 ± 0.079 |
| E54V | -0.057 ± 0.076 |
| K44A | 0.038 ± 0.098 |
| I6M | 0.369 ± 0.094 |
| G37C | -0.132 ± 0.095 |
| G37V | -0.378 ± 0.072 |
| L14K | -1.16 ± 0.2 |

| Variant | abundance fitness |
| --- | --- |
| L11M | -0.148 ± 0.11 |
| I29R | -0.21 ± 0.068 |
| V42M | -0.021 ± 0.11 |
| K53L | 0.06 ± 0.084 |
| I6A | -0.069 ± 0.086 |
| Q28D | -0.12 ± 0.11 |
| R3I | -0.136 ± 0.1 |
| P2R | -0.083 ± 0.08 |
| E26D | -0.069 ± 0.12 |
| R3D | 0.015 ± 0.1 |
| G37W | -0.535 ± 0.08 |
| N21P | -0.494 ± 0.097 |
| T50Q | 0.035 ± 0.11 |
| I29E | -0.025 ± 0.091 |
| H45E | 0.09 ± 0.098 |
| I6G | -0.381 ± 0.09 |
| T50G | -0.079 ± 0.074 |
| E34F | -0.392 ± 0.12 |
| S36D | -0.857 ± 0.13 |
| R3T | 0.102 ± 0.091 |
| Q40C | -0.1 ± 0.095 |
| I29P | -0.814 ± 0.14 |
| R48I | -0.164 ± 0.12 |
| K35M | -0.304 ± 0.092 |

| Variant | abundance fitness |
| --- | --- |
| K35S | -0.192 ± 0.077 |
| Y17L | -0.159 ± 0.065 |
| F18Q | 0.011 ± 0.11 |
| V42F | 0.007 ± 0.1 |
| R15E | -0.098 ± 0.089 |
| P2C | -0.844 ± 0.12 |
| N21G | -0.261 ± 0.11 |
| T7M | 0.038 ± 0.12 |
| H45G | -0.029 ± 0.089 |
| E34P | -0.536 ± 0.14 |
| T7A | 0.02 ± 0.12 |
| E54G | -0.17 ± 0.07 |
| S23V | -0.052 ± 0.072 |
| I6T | -0.246 ± 0.074 |
| S36G | -0.28 ± 0.064 |
| F52Q | 0.006 ± 0.24 |
| H45D | 0.006 ± 0.087 |
| I6L | 0.006 ± 0.062 |
| E54H | -0.238 ± 0.13 |
| I29Q | -0.147 ± 0.12 |
| I13W | -0.136 ± 0.082 |
| P24L | -0.259 ± 0.067 |
| I29G | -0.605 ± 0.07 |
| D9A | 0.059 ± 0.074 |

| Variant | abundance fitness |
| --- | --- |
| E31A | -0.104 ± 0.087 |
| L11C | -0.392 ± 0.096 |
| N22G | 0.014 ± 0.27 |
| L51N | -0.12 ± 0.13 |
| D9I | -0.026 ± 0.075 |
| R3L | -0.024 ± 0.083 |
| V42H | -0.069 ± 0.13 |
| Q40M | 0.03 ± 0.095 |
| T7C | -0.337 ± 0.14 |
| E31I | -0.09 ± 0.13 |
| E34V | -0.037 ± 0.073 |
| M32Q | -0.837 ± 0.14 |
| R5C | 0.136 ± 0.08 |
| K44R | -0.01 ± 0.12 |
| K35N | -0.265 ± 0.11 |
| R48S | -0.112 ± 0.077 |
| Q56M | -0.12 ± 0.18 |
| L51F | -0.257 ± 0.17 |
| K12L | 0.005 ± 0.073 |
| I43N | -1.02 ± 0.21 |
| L14V | -0.273 ± 0.083 |
| G37D | -0.07 ± 0.097 |
| T50A | -0.013 ± 0.08 |
| E31L | -0.089 ± 0.076 |

| Variant | abundance fitness |
| --- | --- |
| D19P | -0.149 ± 0.11 |
| Q10D | -0.125 ± 0.12 |
| R48M | -0.095 ± 0.14 |
| L11S | -0.043 ± 0.073 |
| N21E | 0.122 ± 0.26 |
| L14D | -1.19 ± 0.46 |
| Q28I | 0.06 ± 0.17 |
| I29K | -0.226 ± 0.13 |
| D19A | 0.011 ± 0.082 |
| E31N | 0.011 ± 0.15 |
| R1Y | -0.157 ± 0.19 |
| I29L | 0.002 ± 0.08 |
| L11K | 0.138 ± 0.11 |
| P2Y | 0.022 ± 0.16 |
| F52Y | -0.02 ± 0.17 |
| E54D | -0.102 ± 0.11 |
| L51D | -0.047 ± 0.18 |
| Q40D | -0.232 ± 0.13 |
| L11P | -0.769 ± 0.11 |
| T50E | 0.051 ± 0.12 |
| F18N | -0.268 ± 0.1 |
| Q10A | -0.461 ± 0.076 |
| K41E | -0.043 ± 0.093 |
